{
  "source": "patent US20190359693A1",
  "binders": {"B1": {"name": "SD3007 (VHH)", "VHH": "EVQLLESGGGLVQPGGSLRLSCAASGFTLENKAIGWFRQAPGKEREGVSCISKSGSWTYYADSVKGRFTISRDNSKNTVYLQMNSLRAEDTAVYYCATTTAGGGLCWDGTTFSRLASSWGQGTQVTVSS"}, "B2": {"name": "SD3010 (VHH)", "VHH": "B1 VHH with S49L, V79L"}, "B3": {"name": "SD3012 (VHH)", "VHH": "B1 VHH with S49L, A88P"}, "B4": {"name": "SD3008 (VHH)", "VHH": "B1 VHH with A88P"}, "B5": {"name": "SD3011 (VHH)", "VHH": "B1 VHH with S49L"}, "B6": {"name": "SD3009 (VHH)", "VHH": "B1 VHH with I34M, G35S, S49L, V79L"}, "B7": {"name": "SD3088 (VHH)", "VHH": "B1 VHH with S49L, V79L, Q124L"}, "B8": {"name": "SD3001 (VHH)", "VHH": "EVQLVESGGGLVQPGGSLRLSCAASGFTFSTSWMSWLRQAPGKGLEWVSVINTDGGTYYADSVKGRFTISRDNSKNTLYLQMNSLRAEDTAVYYCAKDWGGPEPTRGQGTQVTVSS"}, "B9": {"name": "SD3086 (VHH)", "VHH": "B8 VHH with S35Y, L37V, Q111L"}, "B10": {"name": "SD3002 (VHH)", "VHH": "B8 VHH with S35Y"}, "B11": {"name": "SD3003 (VHH)", "VHH": "B8 VHH with N76D"}, "B12": {"name": "SD3004 (VHH)", "VHH": "B8 VHH with S35Y, N76D"}, "B13": {"name": "SD3075 (VHH)", "VHH": "EVQLVESGGGLVQPGGSLRLSCAASGLSLDTYAVGWFRQAPGKEREGVSCISSGHGITYYADSVKGRFTISTDNSKNTLYLQMNSLRAEDTAVYYCATESRYYCSDNWPAPQRYIYWGQGTLVTVSS"}, "B14": {"name": "SD3076 (VHH)", "VHH": "B13 VHH with I57L"}, "B15": {"name": "SD3100 (VHH)", "VHH": "B13 VHH with A24I, I57A"}, "B16": {"name": "SD3102 (VHH)", "VHH": "B13 VHH with A24I, I57Q"}, "B17": {"name": "SD3074 (VHH)", "VHH": "B13 VHH with A24I, V48I, S49T, I57M"}, "B18": {"name": "SD3101 (VHH)", "VHH": "B13 VHH with A24I, I57S"}, "B19": {"name": "SD3104 (VHH)", "VHH": "B13 VHH with A24I, I57N"}, "B20": {"name": "SD3072 (VHH)", "VHH": "B13 VHH with V48I, S49T, I57M, I70V"}, "B21": {"name": "SD3073 (VHH)", "VHH": "B13 VHH with A24I, I57M, I70V"}, "B22": {"name": "SD3103 (VHH)", "VHH": "B13 VHH with A24I, I57D"}, "B23": {"name": "SD3069 (VHH)", "VHH": "B13 VHH with A24I, V48I, S49T, I57M, I70V"}, "B24": {"name": "SD3071 (VHH)", "VHH": "B13 VHH with A24I, V48I, S49T, I57L, I70V"}, "B25": {"name": "SD3070 (VHH)", "VHH": "B13 VHH with A24I, V48I, S49T, I70V"}, "B26": {"name": "SD3041 (VHH)", "VHH": "EVQLVESGGGLVQPGGSLRLSCAASGRTLSIYSMSWFRQAPGKEREFVSAIGWNSGRTYYADSVKGRFTISRDNSKNTLYLQMNSLRAEDTAVYYCAAAKGPLRLSSQADYWGQGTQVTVSS"}, "B27": {"name": "SD3043 (VHH)", "VHH": "B26 VHH with S49A, A50T"}, "B28": {"name": "SD3042 (VHH)", "VHH": "B26 VHH with A50T"}, "B29": {"name": "SD3049 (VHH)", "VHH": "B13 VHH with V34M, G35S, I57M, T72R, R87Q, A88P, V93R, L122Q"}, "B30": {"name": "SD3052 (VHH)", "VHH": "B13 VHH with V34M, G35S, I57L, T72R, R87Q, A88P, V93R, L122Q"}, "B31": {"name": "SD3050 (VHH)", "VHH": "B13 VHH with V34M, G35S, V48I, S49T, I57M, T72R, R87Q, A88P, V93R, L122Q"}, "B32": {"name": "SD3055 (VHH)", "VHH": "B13 VHH with V34M, G35S, V48I, S49T, I57L, T72R, R87Q, A88P, V93R, L122Q"}, "B33": {"name": "SD3054 (VHH)", "VHH": "B13 VHH with V34M, G35S, V48I, S49T, T72R, R87Q, A88P, V93R, L122Q"}, "B34": {"name": "SD3056 (VHH)", "VHH": "B13 VHH with V34M, G35S, V48I, S49T, I57F, T72R, R87Q, A88P, V93R, L122Q"}, "B35": {"name": "SD3053 (VHH)", "VHH": "B13 VHH with V34M, G35S, I57F, T72R, R87Q, A88P, V93R, L122Q"}, "B36": {"name": "SD3051 (VHH)", "VHH": "B13 VHH with V34M, G35S, T72R, R87Q, A88P, V93R, L122Q"}},
  "note": "Where a chain is given by its changes, count along the chain named.",
  "data": [
    {"biological_target": "hemagglutinin (HA) of influenza B/Lee/40 (Old) (influenza B virus) (UniProt P03460)", "sequence (P03460 16-584 limits assumed)": "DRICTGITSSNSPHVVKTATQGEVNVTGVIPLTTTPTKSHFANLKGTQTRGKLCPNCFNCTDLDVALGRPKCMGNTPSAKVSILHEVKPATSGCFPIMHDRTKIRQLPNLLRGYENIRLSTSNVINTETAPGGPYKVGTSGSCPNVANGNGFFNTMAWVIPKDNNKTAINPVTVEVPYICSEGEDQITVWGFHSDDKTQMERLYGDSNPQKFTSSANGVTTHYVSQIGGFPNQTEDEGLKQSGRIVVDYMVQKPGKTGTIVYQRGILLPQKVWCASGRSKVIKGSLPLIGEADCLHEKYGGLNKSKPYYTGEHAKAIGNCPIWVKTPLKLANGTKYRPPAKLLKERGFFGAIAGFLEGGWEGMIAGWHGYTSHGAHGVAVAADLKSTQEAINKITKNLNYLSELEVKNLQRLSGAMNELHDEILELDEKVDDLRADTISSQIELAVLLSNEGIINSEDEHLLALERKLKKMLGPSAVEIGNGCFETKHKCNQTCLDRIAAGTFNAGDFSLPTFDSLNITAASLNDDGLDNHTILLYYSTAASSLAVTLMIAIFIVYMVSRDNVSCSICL", "assay": "cell-based or functional assay", "units": {"VNA IC50": "µM"}, "values": [
      {"binder": "B1", "VNA IC50": "> 1"},
      {"binder": "B2", "VNA IC50": 0.227},
      {"binder": "B3", "VNA IC50": 0.06},
      {"binder": "B4", "VNA IC50": "> 1"},
      {"binder": "B5", "VNA IC50": 0.059},
      {"binder": "B6", "VNA IC50": 0.372},
      {"binder": "B7", "VNA IC50": 0.127},
      {"binder": "B8", "VNA IC50": "> 1"},
      {"binder": "B9", "VNA IC50": "> 1"},
      {"binder": "B10", "VNA IC50": "> 1"},
      {"binder": "B11", "VNA IC50": "> 1"},
      {"binder": "B12", "VNA IC50": "> 1"},
      {"binder": "B13", "VNA IC50": "> 1"},
      {"binder": "B14", "VNA IC50": "> 1"},
      {"binder": "B15", "VNA IC50": "> 1"},
      {"binder": "B16", "VNA IC50": "> 1"},
      {"binder": "B17", "VNA IC50": 0.042},
      {"binder": "B18", "VNA IC50": "> 1"},
      {"binder": "B19", "VNA IC50": "> 1"},
      {"binder": "B20", "VNA IC50": 0.318},
      {"binder": "B21", "VNA IC50": 0.059},
      {"binder": "B22", "VNA IC50": "> 1"},
      {"binder": "B23", "VNA IC50": 0.067},
      {"binder": "B24", "VNA IC50": "> 1"},
      {"binder": "B25", "VNA IC50": "> 1"}
    ]},
    {"biological_target": "hemagglutinin (HA) of influenza A/New York/107/03 (PR8) (influenza A virus A/New York/107/03 (PR8))", "assay": "cell-based or functional assay", "units": {"VNA IC50": "µM"}, "values": [
      {"binder": "B26", "VNA IC50": "> 1"},
      {"binder": "B27", "VNA IC50": "> 1"},
      {"binder": "B28", "VNA IC50": "> 1"}
    ]},
    {"biological_target": "hemagglutinin (HA) of influenza B/Harbin/7/94 (Yamagata) (influenza B virus)", "assay": "cell-based or functional assay", "units": {"VNA IC50": "µM"}, "values": [
      {"binder": "B1", "VNA IC50": "> 1"},
      {"binder": "B2", "VNA IC50": 0.173},
      {"binder": "B3", "VNA IC50": 0.078},
      {"binder": "B4", "VNA IC50": "> 1"},
      {"binder": "B5", "VNA IC50": 0.096},
      {"binder": "B6", "VNA IC50": 0.516},
      {"binder": "B8", "VNA IC50": "> 1"},
      {"binder": "B10", "VNA IC50": 0.137},
      {"binder": "B11", "VNA IC50": "> 1"},
      {"binder": "B12", "VNA IC50": 0.101},
      {"binder": "B29", "VNA IC50": "> 1"},
      {"binder": "B13", "VNA IC50": "> 1"},
      {"binder": "B14", "VNA IC50": "> 1"},
      {"binder": "B30", "VNA IC50": "> 1"},
      {"binder": "B15", "VNA IC50": "> 1"},
      {"binder": "B31", "VNA IC50": "> 1"},
      {"binder": "B32", "VNA IC50": "> 1"},
      {"binder": "B16", "VNA IC50": "> 1"},
      {"binder": "B33", "VNA IC50": "> 1"},
      {"binder": "B17", "VNA IC50": "> 1"},
      {"binder": "B18", "VNA IC50": "> 1"},
      {"binder": "B19", "VNA IC50": "> 1"},
      {"binder": "B20", "VNA IC50": "> 1"},
      {"binder": "B21", "VNA IC50": "> 1"},
      {"binder": "B34", "VNA IC50": "> 1"},
      {"binder": "B35", "VNA IC50": "> 1"},
      {"binder": "B36", "VNA IC50": "> 1"},
      {"binder": "B22", "VNA IC50": "> 1"},
      {"binder": "B23", "VNA IC50": "> 1"},
      {"binder": "B24", "VNA IC50": "> 1"},
      {"binder": "B25", "VNA IC50": "> 1"}
    ]}
  ]
}
